The values below come from publication PMC6937246 (2019).

Experiment [1] concerns the target purified tubulin dimer. The experiment in a line: SPR; VASH1 L226A/C169S.
For experiment [2], the target named is purified tubulin dimer. Briefly: SPR.

B1: VASH1-SVBP complex, VASH1 L226A (complex)
chain 1: not shown
chain 2: MDPPARKEKTKVKESVSRVEKAKQKSAQQELKQRQRAEIYALNRVMTELEQQQFDEFCKQMQPPGE
For B1, in the experiment with purified tubulin dimer [1], the Kd was determined as 2100 nM.

B2: VASH1^44–315-SVBP^1–66 heterodimer (complex)
chain 1: not shown
chain 2: MDPPARKEKTKVKESVSRVEKAKQKSAQQELKQRQRAEIYALNRVMTELEQQQFDEFCKQMQPPGE
The molecule B2 displayed a Kd with purified tubulin dimer [2] of 320 nM.
